Reference: PMC4513130, “Neuronal Calcium Sensor-1 Binds the D2 Dopamine Receptor and G-protein-coupled Receptor Kinase 1 (GRK1) Peptides Using Different Modes of Interactions” (The Journal of Biological Chemistry, 2015)

What was measured:
[1] = target: D2 receptor peptide (D2R peptide) (human); experiment: ITC; 1 mM Ca2+/NCS-1 in the syringe titrated into 100 uM D2R peptide in the cell, 25 °C, 50 mM Tris-HCl, 50 mM NaCl, 5 mM CaCl2, pH 7.5; fitted to a sequential model and to a two-site nonsequential model with stoichiometry fixed at 1:2 NCS-1:peptide
[2] = target: D2 receptor peptide (D2R peptide) (human); experiment: crystal structure; NCS-1 (1 mM) with 2-fold excess of D2R peptide; 150 mM Tris-HCl pH 8.0, 8% ethylene glycol, 20% PEG 5000, 20 °C; 2.19 Å
[3] = target: GRK1 peptide (N terminus of G-protein-coupled receptor kinase 1, residues 1-25); experiment: crystal structure; NCS-1 (1 mM) with 2-fold excess of GRK1 peptide; 0.12 M alcohols, 0.1 M HEPES/MOPS pH 7.5, 30% PEGMME 550 and PEG 20000, 20 °C; 2.30 Å
Sequence of GRK1 peptide (N terminus of G-protein-coupled receptor kinase 1, residues 1-25) (Q15835 1-25): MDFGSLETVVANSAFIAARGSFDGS

Sequence of Rattus norvegicus neuronal calcium sensor-1 (NCS-1), full-length, Ca2+-bound (P62168 whole entry): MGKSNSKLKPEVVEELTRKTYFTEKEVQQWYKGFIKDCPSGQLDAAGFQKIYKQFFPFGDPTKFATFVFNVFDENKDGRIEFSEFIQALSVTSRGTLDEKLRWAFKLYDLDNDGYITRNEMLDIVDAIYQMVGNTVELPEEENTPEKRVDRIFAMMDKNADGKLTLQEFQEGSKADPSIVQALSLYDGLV

## Rattus norvegicus neuronal calcium sensor-1 (NCS-1), full-length, Ca2+-bound (from UniProt P62168 1-190) (natural protein)
[1]
  Kd, sequential binding model, first value: 43 µM
  Kd, sequential binding model, second value: 58 µM
  dH: -2.06 kcal/mol
[2]
  stoichiometry N: 2
[3]
  stoichiometry N: 1
